{
  "source": "the supplement of paper PMC9112550",
  "about": "“Optimization of the antimicrobial peptide Bac7 by deep mutational scanning” (BMC Biology, 2022);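 note: peptides expressed intracellularly from a pBAD plasmid library in pooled LB shake-flask culture, induced with 0.3% L-arabinose, DNA abundance read by NGS, three biological replicates, DESeq2 with apeglm shrinkage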",
  "data": [
    {"tested_on": "Escherichia coli TOP10", "experiment": "shrunken log2 fold change of peptide-encoding DNA abundance (4.5 h post-induction vs induction); higher = less antimicrobial activity (less host growth inhibition)", "conditions": "time post-induction: 4.5 h; library: site-saturation at positions 5, 18, 19, 20", "values": [
      {"sequence": "RRIRWRPPRLPRPRPRPYDMPRP", "shrunken log2 fold change": 0.0118},
      {"sequence": "RRIRLRPPRLPRPRPRPCWTPRP", "shrunken log2 fold change": -0.252},
      {"sequence": "RRIRSRPPRLPRPRPRPARTPRP", "shrunken log2 fold change": 0.293},
      {"sequence": "RRIRHRPPRLPRPRPRPENQPRP", "shrunken log2 fold change": -0.243},
      {"sequence": "RRIRERPPRLPRPRPRPHQIPRP", "shrunken log2 fold change": -0.372},
      {"sequence": "RRIRKRPPRLPRPRPRPPCTPRP", "shrunken log2 fold change": 0.193},
      {"sequence": "RRIRGRPPRLPRPRPRPDAHPRP", "shrunken log2 fold change": 0.421},
      {"sequence": "RRIRKRPPRLPRPRPRPVEWPRP", "shrunken log2 fold change": 0.12},
      {"sequence": "RRIRQRPPRLPRPRPRPRRHPRP", "shrunken log2 fold change": -0.0734},
      {"sequence": "RRIRGRPPRLPRPRPRPQFPPRP", "shrunken log2 fold change": -0.0214},
      {"sequence": "RRIRCRPPRLPRPRPRPNESPRP", "shrunken log2 fold change": -0.00497},
      {"sequence": "RRIRIRPPRLPRPRPRPWCGPRP", "shrunken log2 fold change": -0.454},
      {"sequence": "RRIRSRPPRLPRPRPRPPCHPRP", "shrunken log2 fold change": -0.0302},
      {"sequence": "RRIRLRPPRLPRPRPRPDDCPRP", "shrunken log2 fold change": 0.014},
      {"sequence": "RRIRARPPRLPRPRPRPRMQPRP", "shrunken log2 fold change": 0.637},
      {"sequence": "RRIRKRPPRLPRPRPRPTHWPRP", "shrunken log2 fold change": 0.796},
      {"sequence": "RRIRDRPPRLPRPRPRPKFHPRP", "shrunken log2 fold change": -0.362},
      {"sequence": "RRIRERPPRLPRPRPRPWLKPRP", "shrunken log2 fold change": -0.24},
      {"sequence": "RRIRHRPPRLPRPRPRPTDEPRP", "shrunken log2 fold change": -0.123},
      {"sequence": "RRIRWRPPRLPRPRPRPVWGPRP", "shrunken log2 fold change": 0.131},
      {"sequence": "RRIRWRPPRLPRPRPRPQWEPRP", "shrunken log2 fold change": -0.0152},
      {"sequence": "RRIRPRPPRLPRPRPRPYLWPRP", "shrunken log2 fold change": -0.769},
      {"sequence": "RRIRRRPPRLPRPRPRPNKMPRP", "shrunken log2 fold change": -0.0549},
      {"sequence": "RRIRPRPPRLPRPRPRPYMEPRP", "shrunken log2 fold change": 1.54},
      {"sequence": "RRIRYRPPRLPRPRPRPCCGPRP", "shrunken log2 fold change": -0.33},
      {"sequence": "RRIRQRPPRLPRPRPRPEEPPRP", "shrunken log2 fold change": 0.0685},
      {"sequence": "RRIRVRPPRLPRPRPRPETAPRP", "shrunken log2 fold change": 0.406},
      {"sequence": "RRIRERPPRLPRPRPRPYCGPRP", "shrunken log2 fold change": -0.109},
      {"sequence": "RRIRTRPPRLPRPRPRPARMPRP", "shrunken log2 fold change": 0.127},
      {"sequence": "RRIRPRPPRLPRPRPRPWQAPRP", "shrunken log2 fold change": -0.0268},
      {"sequence": "RRIRRRPPRLPRPRPRPQALPRP", "shrunken log2 fold change": 0.128},
      {"sequence": "RRIRERPPRLPRPRPRPWMPPRP", "shrunken log2 fold change": -0.062},
      {"sequence": "RRIRDRPPRLPRPRPRPRLSPRP", "shrunken log2 fold change": 0.286},
      {"sequence": "RRIRPRPPRLPRPRPRPEATPRP", "shrunken log2 fold change": 0.33},
      {"sequence": "RRIRERPPRLPRPRPRPQHLPRP", "shrunken log2 fold change": 0.0167},
      {"sequence": "RRIRDRPPRLPRPRPRPRPTPRP", "shrunken log2 fold change": 0.381},
      {"sequence": "RRIRCRPPRLPRPRPRPCSGPRP", "shrunken log2 fold change": -0.513},
      {"sequence": "RRIRTRPPRLPRPRPRPSQDPRP", "shrunken log2 fold change": -0.355},
      {"sequence": "RRIRPRPPRLPRPRPRPCANPRP", "shrunken log2 fold change": 0.0366},
      {"sequence": "RRIRGRPPRLPRPRPRPTESPRP", "shrunken log2 fold change": 0.803},
      {"sequence": "RRIRCRPPRLPRPRPRPLTVPRP", "shrunken log2 fold change": -0.483},
      {"sequence": "RRIRWRPPRLPRPRPRPNAGPRP", "shrunken log2 fold change": -0.00207},
      {"sequence": "RRIRCRPPRLPRPRPRPGCPPRP", "shrunken log2 fold change": 0.239},
      {"sequence": "RRIRWRPPRLPRPRPRPEYHPRP", "shrunken log2 fold change": 0.0167},
      {"sequence": "RRIRWRPPRLPRPRPRPDREPRP", "shrunken log2 fold change": -0.0009},
      {"sequence": "RRIRMRPPRLPRPRPRPHKGPRP", "shrunken log2 fold change": 0.034},
      {"sequence": "RRIRHRPPRLPRPRPRPHNQPRP", "shrunken log2 fold change": -0.521},
      {"sequence": "RRIRPRPPRLPRPRPRPINMPRP", "shrunken log2 fold change": -0.503},
      {"sequence": "RRIRMRPPRLPRPRPRPVVLPRP", "shrunken log2 fold change": 0.272},
      {"sequence": "RRIRDRPPRLPRPRPRPMQDPRP", "shrunken log2 fold change": -0.0272},
      {"sequence": "RRIRYRPPRLPRPRPRPCVAPRP", "shrunken log2 fold change": -0.11},
      {"sequence": "RRIRDRPPRLPRPRPRPLNKPRP", "shrunken log2 fold change": -0.295},
      {"sequence": "RRIRRRPPRLPRPRPRPASEPRP", "shrunken log2 fold change": 0.182},
      {"sequence": "RRIRHRPPRLPRPRPRPDNAPRP", "shrunken log2 fold change": -0.34},
      {"sequence": "RRIRIRPPRLPRPRPRPCMQPRP", "shrunken log2 fold change": -0.0295},
      {"sequence": "RRIRTRPPRLPRPRPRPALAPRP", "shrunken log2 fold change": 0.425},
      {"sequence": "RRIRPRPPRLPRPRPRPECWPRP", "shrunken log2 fold change": 0.903},
      {"sequence": "RRIRIRPPRLPRPRPRPKFRPRP", "shrunken log2 fold change": -0.0682},
      {"sequence": "RRIRDRPPRLPRPRPRPRIIPRP", "shrunken log2 fold change": -0.00686},
      {"sequence": "RRIRHRPPRLPRPRPRPKSTPRP", "shrunken log2 fold change": -0.0868},
      {"sequence": "RRIRQRPPRLPRPRPRPVICPRP", "shrunken log2 fold change": -0.0945},
      {"sequence": "RRIRRRPPRLPRPRPRPSTGPRP", "shrunken log2 fold change": 0.112},
      {"sequence": "RRIRIRPPRLPRPRPRPVLDPRP", "shrunken log2 fold change": 0.0135},
      {"sequence": "RRIRFRPPRLPRPRPRPSVWPRP", "shrunken log2 fold change": -0.229},
      {"sequence": "RRIRVRPPRLPRPRPRPLIKPRP", "shrunken log2 fold change": -0.206},
      {"sequence": "RRIRCRPPRLPRPRPRPHSPPRP", "shrunken log2 fold change": -0.422},
      {"sequence": "RRIRIRPPRLPRPRPRPHMHPRP", "shrunken log2 fold change": -1.05},
      {"sequence": "RRIRDRPPRLPRPRPRPLQMPRP", "shrunken log2 fold change": 0.167},
      {"sequence": "RRIRMRPPRLPRPRPRPCWRPRP", "shrunken log2 fold change": 0.14},
      {"sequence": "RRIRCRPPRLPRPRPRPFAIPRP", "shrunken log2 fold change": -0.682},
      {"sequence": "RRIRHRPPRLPRPRPRPKERPRP", "shrunken log2 fold change": -0.0122},
      {"sequence": "RRIRNRPPRLPRPRPRPYSEPRP", "shrunken log2 fold change": -2.12},
      {"sequence": "RRIRYRPPRLPRPRPRPELIPRP", "shrunken log2 fold change": -0.363},
      {"sequence": "RRIRVRPPRLPRPRPRPLQKPRP", "shrunken log2 fold change": 0.0697},
      {"sequence": "RRIRERPPRLPRPRPRPFYVPRP", "shrunken log2 fold change": -0.189}
    ]}
  ]
}
